Test results reported in the supplement of paper PMC10126150.
± gives the standard deviation of the averaged measurements.

Test system: ATP
Assay: switch fluorescence ratio, 500 uM ATP over buffer (Cy3 cluster intensity, sum of 5 cycles each) (fold (ratio)); higher = stronger signal-on switching upon ATP binding; sequences stand for … in TCGTCGGCAGCGTCAGATGTGTATAAGAGACAGTTTTTTTTTTTTTTTTTTTTTTTTT…TC
Conditions: aptamer strand: ATP DNA aptamer (quencher-CACCTGGGGGAGTATTGCGGAGGAAGG + anchor), 100 nM annealed; ATP concentration: 500 uM
Outline: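 After annealing to 100 nM quencher-labelled ATP aptamer, Cy3-labelled switching-strand clusters on a modified Illumina MiSeq flow-cell were imaged in selection buffer. A second image followed after 15 min with 500 uM ATP at 22 °C, and five such buffer/ATP cycles were done, each separated by NaOH stripping and re-annealing. The fluorescence ratio, averaged per switch-domain sequence, is summed target-cycle over summed buffer-cycle Cy3 intensity per cluster, with clusters outside 100-1000 RFU excluded.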
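Also: ATP exposure 15 min at 22 °C before imaging.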

| Sequence | switch fluorescence ratio |
| --- | --- |
| GCTGAAGGGT | 1.012 ± 0.0019 |
| GCTGAATAAT | 1.01 ± 0.029 |
| GCTGAATTTG | 0.989 ± 0.058 |
| GCTGAGGCAA | 1.06 ± 0.015 |
| GCTGAGGCAG | 1.002 ± 0.0046 |
| GCTGAGGGGA | 1.03 ± 0.049 |
| GCTGAGGGGG | 0.991 ± 0.041 |
| GCTGATAATG | 0.978 ± 0.014 |
| GCTGATGCGT | 1.01 ± 0.038 |
| GCTGATTGGC | 1.05 ± 0.13 |
| GCTGATTTGT | 0.989 ± 0.038 |
| GCTGCAGATT | 0.988 ± 0.03 |
| GCTGCAGGGT | 0.9922 ± 0.009 |
| GCTGCCGTGT | 0.967 ± 0.064 |
| GCTGCGGGAT | 1.16 ± 0.15 |
| GCTGCGGGG | 1.01 ± 0.053 |
| GCTGCTGGGC | 0.968 ± 0.036 |
| GCTGCTTAGC | 1.02 ± 0.018 |
| GCTGCTTGGG | 1.01 ± 0.019 |
| GCTGGAAGTA | 0.97 ± 0.046 |
| GCTGGAATAT | 1 ± 0.039 |
| GCTGGAATTG | 1 ± 0.0077 |
| GCTGGACTCG | 1.053 ± 0.0015 |

| Sequence | switch fluorescence ratio |
| --- | --- |
| GCTGGACTTG | 0.998 ± 0.053 |
| GCTGGAGGAC | 0.996 ± 0.032 |
| GCTGGAGGGG | 0.985 ± 0.018 |
| GCTGGATTGG | 0.965 ± 0.016 |
| GCTGGGAGGC | 0.947 ± 0.071 |
| GCTGGGCCGA | 1.01 ± 0.036 |
| GCTGGGGAAA | 0.996 ± 0.032 |
| GCTGGGGGAA | 0.98 ± 0.019 |
| GCTGGGGTTT | 0.996 ± 0.043 |
| GCTGGGTCTG | 1 ± 0.017 |
| GCTGGGTGTG | 1.03 ± 0.011 |
| GCTGGTACAG | 1 ± 0.022 |
| GCTGGTACTG | 0.986 ± 0.037 |
| GCTGGTAGTT | 0.995 ± 0.028 |
| GCTGGTGTGG | 0.995 ± 0.011 |
| GCTGGTTAGG | 1 ± 0.032 |
| GCTGGTTCTG | 0.982 ± 0.054 |
| GCTGGTTGAC | 0.981 ± 0.017 |
| GCTGGTTGGG | 0.98 ± 0.014 |
| GCTGTAAGAA | 1.01 ± 0.037 |
| GCTGTACGCT | 0.9539 ± 0.0027 |
| GCTGTACTCA | 1.43 ± 0.13 |
| GCTGTAGACT | 0.992 ± 0.038 |

| Sequence | switch fluorescence ratio |
| --- | --- |
| GCTGTAGGGC | 1.015 ± 0.0034 |
| GCTGTAGTGG | 0.998 ± 0.051 |
| GCTGTAGTTG | 0.993 ± 0.019 |
| GCTGTCTATC | 1.01 ± 0.027 |
| GCTGTGGCGT | 1.02 ± 0.04 |
| GCTGTGGGGG | 0.966 ± 0.013 |
| GCTGTTAGTG | 0.98 ± 0.013 |
| GCTGTTCCCG | 1.04 ± 0.071 |
| GCTGTTCTTC | 0.985 ± 0.013 |
| GCTTAAACGG | 1.02 ± 0.073 |
| GCTTAAAGGC | 1.01 ± 0.03 |
| GCTTACGTCA | 1.05 ± 0.086 |
| GCTTAGGGGG | 1.031 ± 0.0069 |
| GCTTAGTTGT | 1.015 ± 0.0065 |
| GCTTATATAT | 0.98542 ± 0.00086 |
| GCTTATATTT | 1.045 ± 0.0055 |
| GCTTCCTGCC | 1.4 ± 0.027 |
| GCTTCTATTG | 1.001 ± 0.00067 |
| GCTTCTGCCT | 1 ± 0.013 |
| GCTTCTTAGT | 1.028 ± 0.0053 |
| GCTTGACG | 1.004 ± 0.01 |
| GCTTGATGAA | 1.034 ± 0.0013 |
| GCTTGATTAG | 0.9963 ± 0.0018 |

| Sequence | switch fluorescence ratio |
| --- | --- |
| GCTTGATTGG | 1.04 ± 0.019 |
| GCTTGGCAAC | 1.02 ± 0.012 |
| GCTTGGCTGT | 0.999 ± 0.017 |
| GCTTGGGGGT | 0.987 ± 0.018 |
| GCTTGTAGTT | 0.9865 ± 0.0072 |
| GCTTGTGCAT | 0.989 ± 0.028 |
| GCTTGTTTGG | 0.961 ± 0.013 |
| GCTTGTTTTT | 0.997 ± 0.018 |
| GCTTTAGAGA | 0.985 ± 0.019 |
| GCTTTCGGGC | 1.01 ± 0.045 |
| GCTTTCGTTA | 1.018 ± 0.0071 |
| GCTTTTCGAT | 0.994 ± 0.035 |
| GCTTTTGCCG | 0.993 ± 0.036 |
| GCTTTTGCGG | 0.981 ± 0.045 |
| GCTTTTTAGT | 1.006 ± 0.0021 |
| GCTTTTTCCA | 0.975 ± 0.035 |
| GCTTTTTGC | 0.951 ± 0.065 |
| GCTTTTTGTA | 0.981 ± 0.032 |
| GCTTTTTGTC | 1.06 ± 0.013 |
| GGAAAAGTTT | 0.986 ± 0.04 |
| GGAAAATAAT | 1.01 ± 0.035 |
| GGAAAATGTA | 1.023 ± 0.0063 |
| GGAAAATTTT | 0.994 ± 0.033 |

| Sequence | switch fluorescence ratio |
| --- | --- |
| GGAAAGATGT | 1.01 ± 0.027 |
| GGAAAGATTG | 0.991 ± 0.041 |
| GGAAAGCGTG | 0.993 ± 0.084 |
| GGAAAGGGGT | 1.03 ± 0.082 |
| GGAAAGTAGG | 1.01 ± 0.046 |
| GGAAATATCG | 0.989 ± 0.021 |
| GGAAATGAAT | 1.02 ± 0.029 |
| GGAAATTGGG | 0.994 ± 0.016 |
| GGAACAAGGT | 0.988 ± 0.059 |
| GGAACCCGTG | 0.997 ± 0.048 |
| GGAACGAAAG | 0.995 ± 0.043 |
| GGAACGGGCT | 1 ± 0.021 |
| GGAACGGGGG | 1.02 ± 0.014 |
| GGAACGTGAG | 1.011 ± 0.0011 |
| GGAACTGGCG | 0.938 ± 0.094 |
| GGAACTTGTT | 0.99 ± 0.012 |
| GGAAGAAAAA | 1.01 ± 0.067 |
| GGAAGAAAAC | 1.008 ± 0.0045 |
| GGAAGAAGAT | 0.982 ± 0.033 |
| GGAAGAGAAC | 0.995 ± 0.017 |
| GGAAGATTCG | 0.984 ± 0.03 |
| GGAAGCTTCC | 1.127 ± 0.0032 |
| GGAAGGAGGA | 0.973 ± 0.015 |

| Sequence | switch fluorescence ratio |
| --- | --- |
| GGAAGGGATG | 1 ± 0.026 |
| GGAAGGGGCT | 1.08 ± 0.12 |
| GGAAGGGGGG | 1.01 ± 0.024 |
| GGAAGGTACG | 0.9856 ± 0.0062 |
| GGAAGGTTCG | 1.01 ± 0.033 |
| GGAAGTATTA | 0.966 ± 0.017 |
| GGAAGTGTGG | 1 ± 0.05 |
| GGAAGTGTGT | 0.949 ± 0.021 |
| GGAAGTTAGA | 0.9819 ± 0.0036 |
| GGAATAGGGG | 0.991 ± 0.018 |
| GGAATAGTGG | 0.982 ± 0.025 |
| GGAATATGTG | 0.998 ± 0.0093 |
| GGAATCATGG | 0.996 ± 0.046 |
| GGAATCATTT | 0.972 ± 0.015 |
| GGAATCGGAA | 1.02 ± 0.034 |
| GGAATCTGTT | 0.993 ± 0.068 |
| GGAATGAAGG | 1 ± 0.0041 |
| GGAATGGGGC | 0.993 ± 0.052 |
| GGAATGGGTA | 0.997 ± 0.027 |
| GGAATGTACG | 1 ± 0.041 |
| GGAATGTGTT | 0.972 ± 0.013 |
| GGAATTACAG | 1.02 ± 0.046 |
| GGAATTACCG | 1.031 ± 0.0025 |

| Sequence | switch fluorescence ratio |
| --- | --- |
| GGAATTAGGT | 0.9903 ± 0.0077 |
| GGAATTATAA | 0.99 ± 0.027 |
| GGAATTATCG | 0.98808 ± 0.00049 |
| GGAATTCTCC | 1.21 ± 0.03 |
| GGAATTTCTT | 1.01 ± 0.047 |
| GGAATTTGGC | 1.02 ± 0.052 |
| GGACAAACGT | 1.2 ± 0.052 |
| GGACAAACTC | 1.04 ± 0.036 |
| GGACAAGGGT | 1.02 ± 0.037 |
| GGACAATGGG | 0.985 ± 0.033 |
| GGACACCGGG | 1.04 ± 0.015 |
| GGACAGGCAT | 0.9852 ± 0.0091 |
| GGACAGTGAT | 1.01 ± 0.034 |
| GGACAGTGTA | 1.01 ± 0.02 |
| GGACCGTTTT | 0.998 ± 0.016 |
| GGACGATGGT | 1 ± 0.026 |
| GGACGCATGG | 1.33 ± 0.071 |
| GGACGGAGGT | 0.959 ± 0.038 |
| GGACGGGGGC | 1 ± 0.016 |
